Measurements taken from patent publication US5591427A, “Human Interleukin-3(Il-3) variants and their use to promote or antagonize IL-3-mediated processes” (Medvet Science Pty. Ltd., priority 1979, dated 1997).

Tests used:
[1] = test system: bone marrow progenitor cells; experiment: Colony assay: clonal proliferation and differentiation of bone marrow progenitor cells in semi-solid agar; assay type: cell-based
Method: (a) Colony assay: this assay measured the clonal proliferation and differentiation of bone marrow progenitor cells in semi-solid agar and was carried out as described (Lopez et. al., 1985, Blood 72, 1797-1804). Briefly, low density, macrophage-depleted bone marrow cells were cultured at a concentration of 0.5 to 1×10^5 /mL in Iscove's modified Dulbecco's medium (IMDM, GIBCI, Grant Island, N.Y.), containing 0.33% agar (Difco, Detroit), 25% FCS (Commonwealth Serum Laboratories, Parkville, Victoria, Australia), and 20 μmol/LK2-mercaptoethanol. Different dilutions of IL-3- containing COS cell supernatants were added to each plate. Plates were prepared in triplicate and scored after incubation at 37° C. in 5% CO2 in a humid atmosphere for 14 days. Clones containing 40 cells were scored as colonies.

[2] = molecular target: T1, IL-3 high affinity receptor of monocytes (Homo sapiens, UniProt P26951+P32927); experiment: Competition for 125I-IL-3 binding to the high affinity receptor of monocytes; conditions: high affinity receptor on monocytes
T1 construct: endogenous in cells; host or cells: freshly purified human peripheral blood monocytes
T1 sequence (P26951 19-378): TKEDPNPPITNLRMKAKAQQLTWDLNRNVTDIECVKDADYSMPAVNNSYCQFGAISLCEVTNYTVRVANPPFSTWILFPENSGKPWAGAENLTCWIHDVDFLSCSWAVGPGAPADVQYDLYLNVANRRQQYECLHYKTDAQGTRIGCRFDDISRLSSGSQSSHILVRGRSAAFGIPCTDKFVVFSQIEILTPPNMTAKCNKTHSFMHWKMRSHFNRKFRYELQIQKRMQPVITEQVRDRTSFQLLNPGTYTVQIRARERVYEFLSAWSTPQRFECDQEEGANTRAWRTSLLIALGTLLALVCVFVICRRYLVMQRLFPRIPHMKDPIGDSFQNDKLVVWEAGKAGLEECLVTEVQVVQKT
T1 sequence (P32927 17-897): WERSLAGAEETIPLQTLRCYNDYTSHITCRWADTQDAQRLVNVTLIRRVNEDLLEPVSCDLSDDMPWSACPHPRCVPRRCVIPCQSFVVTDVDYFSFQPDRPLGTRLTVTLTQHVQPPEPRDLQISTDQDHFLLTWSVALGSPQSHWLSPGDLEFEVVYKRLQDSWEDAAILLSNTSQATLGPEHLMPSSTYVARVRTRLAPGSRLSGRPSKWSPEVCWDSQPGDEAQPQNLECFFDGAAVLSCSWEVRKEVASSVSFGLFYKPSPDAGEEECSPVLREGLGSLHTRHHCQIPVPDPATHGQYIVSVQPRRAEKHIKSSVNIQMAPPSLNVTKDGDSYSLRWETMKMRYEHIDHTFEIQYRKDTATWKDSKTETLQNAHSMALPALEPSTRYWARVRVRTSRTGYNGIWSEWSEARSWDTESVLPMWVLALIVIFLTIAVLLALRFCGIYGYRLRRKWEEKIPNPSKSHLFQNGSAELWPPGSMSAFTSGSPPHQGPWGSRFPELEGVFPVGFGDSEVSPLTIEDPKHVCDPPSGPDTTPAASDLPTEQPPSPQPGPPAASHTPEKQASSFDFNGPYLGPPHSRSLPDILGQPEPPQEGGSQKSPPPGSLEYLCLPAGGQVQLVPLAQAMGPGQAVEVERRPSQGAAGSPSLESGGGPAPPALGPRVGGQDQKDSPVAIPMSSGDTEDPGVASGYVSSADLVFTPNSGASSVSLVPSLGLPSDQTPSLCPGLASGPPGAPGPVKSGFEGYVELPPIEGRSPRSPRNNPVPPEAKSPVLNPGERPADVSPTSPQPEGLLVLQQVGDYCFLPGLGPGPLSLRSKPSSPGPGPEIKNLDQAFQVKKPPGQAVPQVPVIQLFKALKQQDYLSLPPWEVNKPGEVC
Method: (a) Radioiodination of hIL-3: rh IL-3 (gift from Dr. L. Park, Immunex Corporation, Seattle, Wash.) was radioiodinated by the ICI method as previously described (Contreras et. al., supra). Iodinated protein was separated from free ^125 I by chromatography on a Sephadex G-25 PD 10 column (Pharmacia, Uppsala, Sweden) equilibrated in phosphate-buffered saline (PBS) containing 0.02% Tween 20, and stored at 4° C. for up to 4 weeks. Before use, the iodinated protein was purified from Tween and nonprotein-associated radioactivity by cation exchange chromatography on a 0.3-ml CM-Sepharose CL-6B column (Pharmacia) and stored at 4° C. for up to 5 days.
(b) Competition Binding assay. Freshly purified monocytes were suspended in binding medium consisting of RPMI 1640 supplemented with 20 mmol/L/HEPES and 0.5% bovine serum albumin (BSA). […] Cell suspensions were then overlaid on 0.2 mL FCS at 4° C. and centrifuged for 30 seconds at a maximum speed in a Beckman Microfugre 12. The tip of each tube was cut off above the visible cell pellet and counted in a Packard Auto-Gamma 5650 (Downer's Grove, Ill). The results are expressed as Percent competition where 100% is the competition observed in the presence of 100 fold excess native IL-3.

IL-3R α chain = molecular target: T2, IL-3R α chain (Homo sapiens, UniProt P26951); experiment: Competition for 125I-IL-3 binding to cloned IL-3R α chain expressed in COS cell transfectants; conditions: for competition for 125I-IL-3 binding to cells expressing only the α chain: FIG. 6
T2 construct: amplify the complete coding region of the IL-3R alpha chain; expressed in transfected cells; host or cells: COS cells (pCDM8 vector, electroporation)
T2 sequence (P26951 19-378): T1 sequence (P26951 19-378)
Excerpt: PolyA+ RNA was isolated from the human cord blood cell line KMT2. Oligo dT primed double stranded cDNA was synthesised and used as template for PCR amplification. The PCR primers were designed to amplify the complete coding region of the IL-3R alpha chain and also to amplify the coding region of the […]. The PCR products were cloned into the vector pGEM-2 for sequence verification, and then into the eukaryotic expression vector, pCDM8. The […]-containing plasmid was transfected into COS cells by electroporation, either on its own or in conjunction with the […], and after two days the cells were used for binding studies.

[3] = listed as IL-3 (Ala^101, Val^116)

- fold higher binding affinity than wild-type IL-3 [2]: 10-15 fold
- fold higher binding affinity than wild-type IL-3 [2, 3]: 16 fold
- fold higher affinity than wild type IL-3 (IL-3R α chain; COS cells transfected with IL-3R α chain cDNA, E. coli produced protein): 10 fold
- competition for 125I-IL-3 binding to cells expressing only the α chain (IL-3R α chain): competed for binding more efficiently
B1: M37: human IL-3 mutant, Asp 101 replaced by Ala and Lys 116 by Val (protein, UniProt P08700 20-152, looked up, variant D101A K116V)
Interleukin-3: APMTQTTPLKTSWVNCSNMIDEIITHLKQPPLPLLDFNNLNGEDQDILMENNLRRPNLEAFNRAVKSLQNASAIESILKNLLPCLPLATAAPTRHPIHIKAGDWNEFRRKLTFYLVTLENAQAQQTTLSLAIF
- number of day 14 colonies [1]: increase in the number of day 14 colonies
- Relative biological activity, PROLIFERATION COLONIES ([1]; concentration of IL-3 mutant giving 50% of biological activity compared to that of wild type IL-3, mean ± SD): 1700
- competition for 125I-IL-3 binding to cells expressing only the α chain (IL-3R α chain; [3]): more potent at competing for binding than wild-type IL-3
